Measured values as given in paper PMC4125095, “Arabidopsis miR171-Targeted Scarecrow-Like Proteins Bind to GT cis-Elements and Mediate Gibberellin-Regulated Chlorophyll Biosynthesis under Light Conditions”.

Columns and labels:
[1] = target: T1, SCL27 (His-SCL27) (Arabidopsis thaliana) (UniProt Q7XJM8); assay: EMSA; conditions: 1 nM Cy5-DNA, 20 uL binding buffer (composition not given, ref 60), 30 C 20 min; 6% native PAGE, 0.5x TBE, 4 C
T1 sequence: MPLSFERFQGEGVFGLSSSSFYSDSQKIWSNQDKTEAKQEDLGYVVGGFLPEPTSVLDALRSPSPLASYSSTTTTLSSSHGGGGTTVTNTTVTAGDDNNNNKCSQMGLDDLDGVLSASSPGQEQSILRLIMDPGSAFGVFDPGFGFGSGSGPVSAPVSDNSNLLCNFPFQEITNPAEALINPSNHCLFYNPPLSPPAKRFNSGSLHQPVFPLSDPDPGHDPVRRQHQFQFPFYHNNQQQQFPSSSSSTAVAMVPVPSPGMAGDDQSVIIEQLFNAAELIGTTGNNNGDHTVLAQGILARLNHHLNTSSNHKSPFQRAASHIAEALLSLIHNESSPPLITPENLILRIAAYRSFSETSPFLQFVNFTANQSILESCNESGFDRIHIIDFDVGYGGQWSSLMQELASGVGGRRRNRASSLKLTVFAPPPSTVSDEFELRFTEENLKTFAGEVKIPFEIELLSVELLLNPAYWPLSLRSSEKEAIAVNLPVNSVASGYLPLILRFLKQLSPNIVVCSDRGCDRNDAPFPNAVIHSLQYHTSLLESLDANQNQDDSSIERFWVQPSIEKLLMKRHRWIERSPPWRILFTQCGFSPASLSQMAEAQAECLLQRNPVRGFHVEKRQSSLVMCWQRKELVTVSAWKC

SCL27 (His-SCL27) = target: T2, SCL27 (His-SCL27) (Arabidopsis thaliana, UniProt Q7XJM8 1-640); assay: EMSA; 1 nM probe; 1 nM Cy5-DNA, 20 uL binding buffer (composition not given, ref 60), 30 C 20 min; 6% native PAGE, 0.5x TBE, 4 C; conditions: protein: recombinant, tags: His (pET28b)
T2 sequence: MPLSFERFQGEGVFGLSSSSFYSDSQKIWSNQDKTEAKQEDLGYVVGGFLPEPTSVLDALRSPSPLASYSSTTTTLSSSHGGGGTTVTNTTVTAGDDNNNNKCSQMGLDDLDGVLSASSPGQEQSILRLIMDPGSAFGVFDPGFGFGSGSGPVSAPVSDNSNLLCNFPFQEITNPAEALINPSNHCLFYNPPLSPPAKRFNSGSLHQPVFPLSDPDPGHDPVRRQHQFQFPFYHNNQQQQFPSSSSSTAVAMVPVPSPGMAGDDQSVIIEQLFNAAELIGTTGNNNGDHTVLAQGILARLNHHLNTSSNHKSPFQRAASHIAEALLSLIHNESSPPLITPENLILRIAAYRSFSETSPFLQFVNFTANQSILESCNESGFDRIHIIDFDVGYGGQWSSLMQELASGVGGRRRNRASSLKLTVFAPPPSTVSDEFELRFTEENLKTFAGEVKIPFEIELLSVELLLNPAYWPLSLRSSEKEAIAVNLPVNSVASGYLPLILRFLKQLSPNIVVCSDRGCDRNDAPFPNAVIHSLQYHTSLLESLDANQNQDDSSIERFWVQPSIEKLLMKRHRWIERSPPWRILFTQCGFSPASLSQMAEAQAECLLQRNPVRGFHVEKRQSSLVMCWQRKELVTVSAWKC

Row | Molecule | binding [1] | other results
1 | AGCCAGTGGCGATAAGCCTGTTATAGGCATATGAACAAGACAATGGAGGAGGAGGAGGAGATGGTCTAGAAACCGTGACGACGGAGGAGGAAAAGAAAAGAGATGAAGTAGAAGAAGAAAATAAAATAAAATAGAGGCAAAAATGGAAATTTTCATTGGAATTTTGCAACTTTTAGAAATTGTAGAAGATGAAGAGAGCTGTGTGATCCAAAAGTGCTTATCGCCACTGGCT (double strand) [PORC promoter fragment III] | binds | 
2 | AGCCAGTGGCGATAAGGATTAAAGAAACGGGTGGAATACACAAGAACAATGTATATGCAAGATTGCAGTGGTGTCGTTGATTACTCTCAATTTGATGATAAGATTCAAATTTGATATGAGTTTGGAGAAGAAGAAGATGACGAAGAGATCATTACTTGGCGATGAGACGAACAAGCAGGAAAGTATTGCCTACGCTTCCTGAACTTCATGAGATGCTTATCGCCACTGGCT (double strand) [PORC promoter fragment I] | no binding | 
3 | M (62-bp mutated GT element fragment) (dsDNA) DNA 1: CCCGGGGAAAAGAGATGAAGTAGAAGAACCCGGGAAAATAAAATAGAGGCAAAAATCCCGGG DNA 2: CCCGGGATTTTTGCCTCTATTTTATTTTCCCGGGTTCTTCTACTTCATCTCTTTTCCCCGGG |  | binding result (SCL27 (His-SCL27)): no binding
4 | W (62-bp GT element fragment) (dsDNA) DNA 1: GGAAAAGAAAAGAGATGAAGTAGAAGAAGAAAATAAAATAAAATAGAGGCAAAAATGGAAAT DNA 2: ATTTCCATTTTTGCCTCTATTTTATTTTATTTTCTTCTTCTACTTCATCTCTTTTCTTTTCC |  | binding result (SCL27 (His-SCL27); three G(A/G)(A/T)AA(A/T) GT elements, mutant): binds
